# In US20230079150A1, “METHODS FOR PREVENTION OR TREATMENT OF VIRUS-INDUCED ORGAN INJURY OR FAILURE WITH IL-22 DIMER” (priority 2020, published 2023):
# B1: F-652: recombinant IL-22 dimer consisting of two monomeric subunits each comprising a sequence shown in SEQ ID NO: 24 (protein)
# chain 1: APISSHCRLDKSNFQQPYITNRTFMLAKEASLADNNTDVRLIGEKLFHGVSMSERCYLMKQVLNFTLEEVLFPQSDRFQPYMQEVVPFLARLSNRLSTCHIEGDDLHIQRNVQKLKDTVKKLGESGEIKAIGELDLLFMSLRNACIGSGGGSGGGGSGGGGSVECPPCPAPPVAGPSVFLFPPKPKDTLMISRTPEVTCVVVDVSHEDPEVQFNWYVDGVEVHNAKTKPREEQFNSTFRVVSVLTVVHQDWLNGKEYKCKVSNKGLPASIEKTISKTKGQPREPQVYTLPPSREEMTKNQVSLTCLVKGFYPSDIAVEWESNGQPENNYKTTPPMLDSDGSFFLYSKLTVDKSRWQQGNVFSCSVMHEALHNHYTQKSLSLSPGK
# chain 2: B1 chain 1
# modifications: homodimer
# Test system: H1N1 influenza (A/PR8 strain)
# Type: in vivo, C57BL/6 mice
molecule,measurement,setting,value
B1,decreased small airway resistance at baseline (pattern differences),6-week treatment groups,not seen
same,input impedance (Re Zrs): baseline resistance in small airways,"aged mice, not young mice, prior to airway recruitment maneuver",significantly improves baseline resistance
